To fix the notation:
T1: GST-PIF3 (Arabidopsis thaliana, UniProt O80536 1-524)
T1 sequence: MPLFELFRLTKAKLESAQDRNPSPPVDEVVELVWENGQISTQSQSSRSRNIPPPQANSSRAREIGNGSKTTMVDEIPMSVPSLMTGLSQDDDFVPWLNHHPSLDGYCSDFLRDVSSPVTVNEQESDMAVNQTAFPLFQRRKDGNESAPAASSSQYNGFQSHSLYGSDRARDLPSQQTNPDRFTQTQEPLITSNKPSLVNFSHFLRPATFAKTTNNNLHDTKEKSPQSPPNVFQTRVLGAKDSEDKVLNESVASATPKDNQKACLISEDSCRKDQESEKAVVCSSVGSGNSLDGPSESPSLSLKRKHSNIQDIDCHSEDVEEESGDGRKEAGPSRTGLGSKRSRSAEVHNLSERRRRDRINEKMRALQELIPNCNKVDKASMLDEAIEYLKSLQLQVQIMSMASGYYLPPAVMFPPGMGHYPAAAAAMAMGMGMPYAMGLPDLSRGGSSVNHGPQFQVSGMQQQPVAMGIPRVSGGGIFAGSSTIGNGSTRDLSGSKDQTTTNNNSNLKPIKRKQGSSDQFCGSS

T2: SBP-fused phyA^PSM (Arabidopsis thaliana, UniProt P14712 1-615, chromophore-bound (phycocyanobilin, PCB))
T2 sequence: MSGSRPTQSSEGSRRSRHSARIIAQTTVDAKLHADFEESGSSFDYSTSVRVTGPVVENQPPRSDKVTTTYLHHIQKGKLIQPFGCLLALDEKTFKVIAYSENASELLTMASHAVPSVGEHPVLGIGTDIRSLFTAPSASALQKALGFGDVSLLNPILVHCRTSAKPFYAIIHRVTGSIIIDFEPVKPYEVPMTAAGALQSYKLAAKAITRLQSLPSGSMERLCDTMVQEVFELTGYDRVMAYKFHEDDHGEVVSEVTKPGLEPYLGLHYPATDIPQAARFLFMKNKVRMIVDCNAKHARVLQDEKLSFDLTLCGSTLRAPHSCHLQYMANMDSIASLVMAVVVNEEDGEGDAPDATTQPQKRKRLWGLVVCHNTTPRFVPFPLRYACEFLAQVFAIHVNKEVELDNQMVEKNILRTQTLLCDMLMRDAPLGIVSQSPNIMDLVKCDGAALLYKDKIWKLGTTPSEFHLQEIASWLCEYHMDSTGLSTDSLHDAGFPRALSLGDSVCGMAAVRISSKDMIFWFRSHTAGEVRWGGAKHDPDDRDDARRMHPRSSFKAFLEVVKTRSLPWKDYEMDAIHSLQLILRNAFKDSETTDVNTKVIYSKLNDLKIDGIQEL

T3: MBP-fused phyB^OPM (Arabidopsis thaliana, UniProt P14713 642-1172)
T3 sequence: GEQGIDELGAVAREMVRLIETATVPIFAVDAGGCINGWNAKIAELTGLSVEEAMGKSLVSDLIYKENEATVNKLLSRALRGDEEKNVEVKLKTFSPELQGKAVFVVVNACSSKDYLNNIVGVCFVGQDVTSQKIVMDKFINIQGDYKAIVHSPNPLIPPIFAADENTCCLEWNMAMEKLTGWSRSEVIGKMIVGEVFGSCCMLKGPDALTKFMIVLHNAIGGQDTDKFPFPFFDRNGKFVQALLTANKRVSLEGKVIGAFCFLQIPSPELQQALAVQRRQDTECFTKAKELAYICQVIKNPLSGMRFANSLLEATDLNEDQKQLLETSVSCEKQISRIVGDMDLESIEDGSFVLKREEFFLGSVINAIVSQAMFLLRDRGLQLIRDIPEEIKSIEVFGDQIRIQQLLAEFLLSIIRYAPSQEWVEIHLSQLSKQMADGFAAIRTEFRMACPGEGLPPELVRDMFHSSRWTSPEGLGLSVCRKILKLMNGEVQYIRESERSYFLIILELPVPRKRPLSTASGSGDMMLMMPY

T4: GST-fused APB (PIF3 1-113 a.a.) (Arabidopsis thaliana, UniProt O80536 1-113)
T4 sequence: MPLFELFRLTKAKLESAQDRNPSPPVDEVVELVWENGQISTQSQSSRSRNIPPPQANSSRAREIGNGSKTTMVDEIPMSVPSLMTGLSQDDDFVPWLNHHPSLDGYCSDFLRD

B1: MBP-fused phyA^OPM (domain or fragment)
chain: KIDGIQELEAVTSEMVRLIETATVPILAVDSDGLVNGWNTKIAELTGLSVDEAIGKHFLTLVEDSSVEIVKRMLENALEGTEEQNVQFEIKTHLSRADAGPISLVVNACASRDLHENVVGVCFVAHDLTGQKTVMDKFTRIEGDYKAIIQNPNPLIPPIFGTDEFGWCTEWNPAMSKLTGLKREEVIDKMLLGEVFGTQKSCCRLKNQEAFVNLGIVLNNAVTSQDPEKVSFAFFTRGGKYVECLLCVSKKLDREGVVTGVFCFLQLASHELQQALHVQRLAERTAVKRLKALAYIKRQIRNPLSGIMFTRKMIEGTELGPEQRRILQTSALCQKQLSKILDDSDLESIIEGCLDLEMKEFTLNEVLTASTSQVMMKSNGKSVRITNETGEEVMSDTLYGDSIRLQQVLADFMLMAVNFTPSGGQLTVSASLRKDQLGRSVHLANLEIRLTHTGAGIPEFLLNQMFGTEEDVSEEGLSLMVSRKLVKLMNGDVQYLRQAGKSSFIITAELAAANK
B2: GST-tagged PIF1 (natural protein)
chain: MHHFVPDFDTDDDYVNNHNSSLNHLPRKSITTMGEDDDLMELLWQNGQVVVQNQRLHTKKPSSSPPKLLPSMDPQQQPSSDQNLFIQEDEMTSWLHYPLRDDDFCSDLLFSAAPTATATATVSQVTAARPPVSSTNESRPPVRNFMNFSRLRGDFNNGRGGESGPLLSKAVVRESTQVSPSATPSAAASESGLTRRTDGTDSSAVAGGGAYNRKGKAVAMTAPAIEITGTSSSVVSKSEIEPEKTNVDDRKRKEREATTTDETESRSEETKQARVSTTSTKRSRAAEVHNLSERKRRDRINERMKALQELIPRCNKSDKASMLDEAIEYMKSLQLQIQMMSMGCGMMPMMYPGMQQYMPHMAMGMGMNQPIPPPSFMPFPNMLAAQRPLPTQTHMAGSGPQYPVHASDPSRVFVPNQQYDPTSGQPQYPAGYTDPYQQFRGLHPTQPPQFQNQATSYPSSSRVSSSKESEDHGNHTTG
B3: SBP-fused phyB^PSM (domain or fragment)
chain: MVSGVGGSGGGRGGGRGGEEEPSSSHTPNNRRGGEQAQSSGTKSLRPRSNTESMSKAIQQYTVDARLHAVFEQSGESGKSFDYSQSLKTTTYGSSVPEQQITAYLSRIQRGGYIQPFGCMIAVDESSFRIIGYSENAREMLGIMPQSVPTLEKPEILAMGTDVRSLFTSSSSILLERAFVAREITLLNPVWIHSKNTGKPFYAILHRIDVGVVIDLEPARTEDPALSIAGAVQSQKLAVRAISQLQALPGGDIKLLCDTVVESVRDLTGYDRVMVYKFHEDEHGEVVAESKRDDLEPYIGLHYPATDIPQASRFLFKQNRVRMIVDCNATPVLVVQDDRLTQSMCLVGSTLRAPHGCHSQYMANMGSIASLAMAVIINGNEDDGSNVASGRSSMRLWGLVVCHHTSSRCIPFPLRYACEFLMQAFGLQLNMELQLALQMSEKRVLRTQTLLCDMLLRDSPAGIVTQSPSIMDLVKCDGAAFLYHGKYYPLGVAPSEVQIKDVVEWLLANHADSTGLSTDSLGDAGYPGAAALGDAVCGMAVAYITKRDFLFWFRSHTAKEIKWGGAKHHPEDKDDGQRMHPRSSFQAFLEVVKSRSQPWETAEMDAIHSLQLILRDSFKESEAAMNSKVVDGVVQPCRDMAGEQGIDELGAV
modifications: chromophore-bound (phycocyanobilin, PCB)
B4: GST-fused APA (PIF3 86-221 a.a.) (domain or fragment)
chain: GLSQDDDFVPWLNHHPSLDGYCSDFLRDVSSPVTVNEQESDMAVNQTAFPLFQRRKDGNESAPAASSSQYNGFQSHSLYGSDRARDLPSQQTNPDRFTQTQEPLITSNKPSLVNFSHFLRPATFAKTTNNNLHDTK

What all share (assay): pull-down
One assay has as its target T1, GST-PIF3.
Another assay addresses T2, SBP-fused phyA^PSM.
The target of assay [1] is B1.
The next assay addresses T3, MBP-fused phyB^OPM.
In assay [2] the target is T4, GST-fused APB (PIF3 1-113 a.a.).
Assay [3] addresses B1. This is another data set of the same source.

The results in this text go back to PMC12033333 (Nature Communications, 2025).

Like-named read-outs stand apart in the source and are kept apart here.

As to B1, the binding result in the assay with GST-PIF3 and with SBP-fused phyA^PSM was “binds” throughout.

Regarding B2, the binding result with MBP-fused phyA^OPM [1] and with MBP-fused phyB^OPM was “binds” in each case.

On to B3, for which the “fold strength against the phyB^OPM-APA interaction (m39 on m40)” value in assay [2] is approximately 2 fold. In the case of B4, the binding result with MBP-fused phyB^OPM and with MBP-fused phyA^OPM [3] was “binds” each time.
